In the supplement of paper PMC9732359:
± gives the uncertainty stated by the source.

Test: protein stability index of a GFP-peptide fusion (yeast GPS) (PSI 1-4); higher = more stable; sorted into four equal gates, so the index is relative within each strain
Outline: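 Sequencing reads from sorted gates were used to score each peptide. The library consisted of tiled 17-residue yeast protein peptides fused downstream of GFP on a Cherry-expressing plasmid, pooled and carried in yeast. Mid-log cultures in leucine-free medium were split into four equal gates by GFP/Cherry ratio, and each gate's plasmids were PCR-amplified and Illumina-sequenced. The protein stability index adds up, over all gates, the read frequency multiplied by the gate number.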

Row | Sequence | protein stability index (ubr1∆) | protein stability index (doa10∆) | protein stability index (pdr5∆) | protein stability index (san1∆)
1 | EETPSKTNKISILKRHS [NUT1] | 3.1 ± 0.17 |  |  | 
2 | SSLIKAGLDKGISINNM [RPO31] | 2.95 ± 0.058 | 2.65 ± 0.064 | 2.7 ± 0.079 | 2.76 ± 0.066
3 | SFKGSPNERKAKQAKIR [SNF2] | 3.12 ± 0.15 | 3.36 ± 0.12 | 3.56 ± 0.12 | 3.39 ± 0.18
4 | FDYMNRYWVQKERSDGK [CDC53] | 2.57 ± 0.18 | 2.26 ± 0.16 |  | 2.39 ± 0.21
5 | SKEGQYKAKIKELENNL [YIL149C/MLP2] | 3.03 ± 0.069 | 2.75 ± 0.12 | 1.49 ± 0.053 | 2.18 ± 0.13
6 | PNADDIRDSIPQMDSFD [DIS3] | 3.06 ± 0.052 | 2.79 ± 0.078 | 2.86 ± 0.089 | 3.14 ± 0.09
7 | LNQLDGFETSKNIKIIM [RPT6] | 2.7 ± 0.18 | 2.39 ± 0.25 | 2.62 ± 0.22 | 2.74 ± 0.14
8 | LAKYRDAGKIDKHLYHV [RPL19A] | 3.61 ± 0.095 | 3.3 ± 0.18 | 3.39 ± 0.15 | 1.27 ± 0.28
9 | GPAAAKPMAFSNTTTHV [MTR3] | 3.27 ± 0.036 | 3.06 ± 0.08 | 3.28 ± 0.052 | 3.39 ± 0.05
10 | TRKAVRPQKLRASLVPG [RPL6B] | 1.83 ± 0.046 | 2.26 ± 0.11 | 1.67 ± 0.11 | 2.9 ± 0.14
11 | NLDGTKAVKLRKSYKNQ [ROX3] | 3.58 ± 0.046 | 3.43 ± 0.1 | 3.36 ± 0.096 | 3.39 ± 0.067
12 | ETQYFWKLLNQLVLRGL [YJR042W/NUP85] | 1.16 ± 0.1 | 2.18 ± 0.19 | 1.26 ± 0.074 | 1.26 ± 0.11
13 | LQKQILTVENKLQFETD [SMC1] | 2.9 ± 0.046 | 2.6 ± 0.069 | 2.37 ± 0.052 | 2.55 ± 0.047
14 | QLKYDTSVQEKELMLQS [YIL149C/MLP2] | 2.53 ± 0.12 | 2.23 ± 0.11 | 2.88 ± 0.17 | 2.81 ± 0.1
15 | QLVYKRGFGKINKQRVP [RPL7A] | 2.85 ± 0.059 | 2.46 ± 0.071 | 2.4 ± 0.079 | 3.24 ± 0.11
16 | QLDSYLVNGFSQSQQKL [MED2] | 2.72 ± 0.046 | 2.02 ± 0.05 | 2.35 ± 0.063 | 2.38 ± 0.064
17 | ERLMSRPFGVALLIAGH [PUP2] | 2.95 ± 0.081 | 2.81 ± 0.28 | 3.08 ± 0.11 | 2.74 ± 0.1
18 | KTYALESINNVVDQLWS [RPN2] | 2.6 ± 0.055 | 2.82 ± 0.066 | 2.9 ± 0.059 | 2.7 ± 0.07
19 | KAGVEAISQSLRDESLT [PRE5] | 3.07 ± 0.067 | 3.05 ± 0.079 | 3.09 ± 0.082 | 3.37 ± 0.082
20 | AGALNLASPEVKVHMDS [DIS3] | 3.04 ± 0.052 | 3.06 ± 0.083 | 3.4 ± 0.069 | 2.99 ± 0.07
21 | MTVTKVSLPEGSFKRVK [BRR2] | 3.17 ± 0.076 | 2.92 ± 0.13 | 2.72 ± 0.11 | 3.19 ± 0.076
22 | IHFREHQSELIIKQTVH [YMR129W/POM152] | 2.21 ± 0.053 | 2.46 ± 0.072 | 2.85 ± 0.069 | 2.48 ± 0.097
23 | LNPNEYFSVTTARRNVS [SWI3] | 2.19 ± 0.076 | 1.64 ± 0.072 | 1.67 ± 0.082 | 1.85 ± 0.14

Row | Sequence | protein stability index (ubr1∆) | protein stability index (doa10∆) | protein stability index (pdr5∆) | protein stability index (san1∆)
24 | EIPEGVTVSIKSRIVKV [RPL9B] | 1.35 ± 0.11 | 1.29 ± 0.055 | 1.45 ± 0.075 | 1.44 ± 0.27
25 | LGKWYSKEDYETLKRDR [ARP7] | 2.95 ± 0.15 | 3.31 ± 0.15 | 2.75 ± 0.2 | 3.33 ± 0.16
26 | KYIGEGSRMVRELFVMA [RPT6] | 1.89 ± 0.07 | 2.24 ± 0.063 | 2.11 ± 0.058 | 2.81 ± 0.082
27 | HVLKTVDYGGAEWSLVR [SNU114] | 1.31 ± 0.29 | 3.09 ± 0.19 | 3.42 ± 0.21 | 3.11 ± 0.18
28 | NLKVELKEQSEQLKEQM [SMC4] | 3.2 ± 0.057 | 3.27 ± 0.055 | 3.2 ± 0.067 | 3.29 ± 0.035
29 | GAFTIALAYAGTGNNSA [RPN2] | 2.15 ± 0.053 | 2.09 ± 0.068 | 2.32 ± 0.083 | 1.99 ± 0.099
30 | ARQQVAQQLRNQQQQQQ [GAL11] | 2.92 ± 0.076 | 2.73 ± 0.064 | 3.2 ± 0.13 | 2.85 ± 0.097
31 | PRSPGRSPTRRLELLQL [SMC4] | 1.7 ± 0.13 | 1.41 ± 0.27 | 2.12 ± 0.15 | 1.99 ± 0.25
32 | TAEINCFMHLLVQLFLW [RPN3] | 2.73 ± 0.072 | 1.77 ± 0.063 | 2.05 ± 0.051 | 1.68 ± 0.14
33 | EQKKTATEVTPQEPKHI [RPC19] | 2.54 ± 0.04 | 2.45 ± 0.054 | 3.02 ± 0.054 | 2.6 ± 0.072
34 | DRHIGCVYSGLIPDGRH [PRE10] | 3.54 ± 0.12 | 3.18 ± 0.098 | 3.41 ± 0.088 | 3.1 ± 0.062
35 | SIHVNRVERSSRSTDNF [RRI1] | 3.02 ± 0.051 | 3.32 ± 0.074 | 3.18 ± 0.069 | 3.03 ± 0.058
36 | TEKEEDAELMADEEEEI [ISW2] | 3.34 ± 0.17 | 3.5 ± 0.18 | 3.38 ± 0.13 | 3.41 ± 0.083
37 | NVIITGSTSLIEGMEQR [ARP7] | 2.13 ± 0.077 | 1.75 ± 0.06 | 2.49 ± 0.075 | 2.27 ± 0.065
38 | LNQIATLKIHLKKFLQE [IRR1] |  | 2.17 ± 0.18 | 1.91 ± 0.22 | 
39 | ATQMTLNTFHFAGVASK [RPO21] | 2.32 ± 0.14 | 1.89 ± 0.11 | 1.9 ± 0.076 | 2 ± 0.22
40 | KKFIEISDVKIQVAAFI [PRP8] | 2.55 ± 0.042 | 2.84 ± 0.058 | 2.54 ± 0.052 | 2.65 ± 0.048
41 | LSRLSTASKIIVIDVDY [MED1] | 2.41 ± 0.074 | 2.07 ± 0.058 | 2.3 ± 0.067 | 2.2 ± 0.051
42 | DEDLLDTQTFSVLLQQL [YGL172W/NUP49] | 2.57 ± 0.045 | 2.93 ± 0.059 | 2.81 ± 0.063 | 1.72 ± 0.11
43 | VVWYQRLTMGNVFTPEI [RRI2] | 2.45 ± 0.073 | 2.03 ± 0.074 | 2.3 ± 0.058 | 2.27 ± 0.12
44 | IPAGIYWYWWKNGNEYN [QCR8] | 2.04 ± 0.089 | 2.35 ± 0.076 | 1.69 ± 0.053 | 1.77 ± 0.13
45 | SSVTSDSMKYTISSLFV [RPC82] | 2.16 ± 0.042 | 1.93 ± 0.046 | 2.3 ± 0.043 | 2.14 ± 0.06
